{
  "source": "patent US20140193421A1",
  "about": "(EISAI R AND D MANAGEMENT, published 2014)",
  "key": {"human XCR1-EGFP [1]": {"biological_target": "T1, human XCR1-EGFP (human, UniProt P46094 1-333, EGFP fused to the receptor is not carried in the letters.)", "T1 sequence": "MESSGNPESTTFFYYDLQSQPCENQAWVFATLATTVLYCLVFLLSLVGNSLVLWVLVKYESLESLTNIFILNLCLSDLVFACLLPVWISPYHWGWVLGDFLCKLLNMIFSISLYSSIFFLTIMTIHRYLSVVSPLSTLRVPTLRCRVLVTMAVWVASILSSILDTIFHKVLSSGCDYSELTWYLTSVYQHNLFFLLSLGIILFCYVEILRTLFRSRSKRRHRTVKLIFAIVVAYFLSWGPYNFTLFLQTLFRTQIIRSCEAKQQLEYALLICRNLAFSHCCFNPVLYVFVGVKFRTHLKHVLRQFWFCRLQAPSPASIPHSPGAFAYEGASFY", "assay": "cell-based or functional assay"}, "[2]": {"biological_target": "T2, human XCR1 peptide 19-30 SQPCENQAWVFA (human)", "T2 peptide": "Biotin-GSGSSQPCENQAWVFA", "assay": "peptide ELISA on streptavidin plates", "method": "(§1) Streptavidin-coated microtiter plates (Perkin Elmer) were coated with 50 μg/mL of peptide per well in a volume of 50 μL, and incubated at room temperature for 1 hour. The peptide solution was removed and PBS⁻ containing 4% Block-Ace was added to each well and incubated overnight at 4° C. Each well was washed three times with an ELISA wash buffer (0.02% Tween20 in PBS−). Anti-human XCR1 antibodies (2H6, 5G7, or 11H2) were added to each well in amount of 10 μg/mL, and incubated for 6 hours at room temperature. Each well was washed three times with the ELISA wash buffer. Horseradish peroxidase-conjugated donkey anti-mouse IgG antibody (Jackson, #715-035-150), diluted 1:5,000 in the ELISA wash buffer, was added to each well and incubated for 1 hour at room temperature. Each well was washed three times with the ELISA wash buffer. TMBZ (3,3′,5,5′ tetramethyl benzidine; Sigma) was added to each well and incubated at room temperature. The reaction was stopped with 2NH₂SO₄, and A₄₅₀ₙₘ was measured by Arvo plate reader (PerkinElmer)."}, "[3]": {"biological_target": "T3, human XCR1 peptide 175-186 CDYSELTWYLTS (human)", "T3 peptide": "Biotin-GSGSCDYSELTWYLTS", "assay": "peptide ELISA on streptavidin plates", "method": "as §1"}, "[4]": {"biological_target": "T4, human XCR1 peptide 172-183 SSGCDYSELTWY (human)", "T4 peptide": "Biotin-GSGSSSGCDYSELTWY", "assay": "peptide ELISA on streptavidin plates", "method": "as §1"}, "[5]": {"biological_target": "T5, human XCR1 peptide 11-22 TFFYYDLQSQPC (human)", "T5 peptide": "Biotin-GSGSTFFYYDLQSQPC", "assay": "peptide ELISA on streptavidin plates", "method": "as §1"}, "human XCR1-EGFP [6]": {"biological_target": "T1, human XCR1-EGFP", "assay": "cell-based or functional assay", "remark": "listed apart in the source"}, "human XCR1-EGFP [7]": {"biological_target": "T1, human XCR1-EGFP", "assay": "competitive ligand binding assay, FACS on human XCR1-EGFP BaF3 cells; competitor human XCL1-SSS-His(10) at 0.12 µg/mL", "method": "The competitive ligand binding assay was performed according to the following procedure. Parent BaF3 cells and human XCR1-EGFP-expressing BaF3 cells were mixed at a 1:1 ratio, and suspended in a FACS buffer (1% FBS-containing PBS⁻ (Sigma)). The cells were blocked for 10 minutes on ice with a FACS buffer containing 10% rat serum. The cells were then incubated for 20 minutes on ice with mouse anti-human XCR1 antibodies (2H6, 5G7, or 11H2), mouse isotype control antibodies, IgG2a (eBioscience, #16-4724-85), or IgG2b (eBioscience, #16-4732-85) at various concentrations from 0 to 150 μg/mL. Next the cells were incubated for 30 minutes on ice with human XCL1-SSS-His(10) at a saturating concentration of 0.12 μg/mL. The cells were washed with the FACS buffer three times, and then incubated for 20 minutes on ice with anti-6×His tag antibody (BETHYL, #A190-114A, diluted at 1:100 in FACS buffer). […] Next the cells were once again washed three times with the FACS buffer, and then suspended in FACS buffer. The fluorescence intensity was measured using a FACSCanto II cell analyzer (BD Bioscience)."}, "human XCR1-EGFP [8]": {"biological_target": "T1, human XCR1-EGFP", "assay": "cell-based or functional assay", "remark": "listed apart in the source"}},
  "note": "Where no end group is shown, it is not given here. The star is where a group is joined. Biotin = O=C1N[C@H]2[C@H](CS[C@H]2CCCCC(=O)*)N1",
  "data": [
    {"binder": "humanized anti-human XCR1 antibody HK1L2 (antibody, human IgG2, kappa, V domains shown) VH: QVQLVQSGAEVKKPGASVKVSCKASGYTFTSHNLHWVRQAPGQRLEWMGAIYPGNGNTAYNQKFKGRVTITRDTSASTAYMELSSLRSEDTAVYYCARWGSVVGDWYFDVWGQGTLVTVSS VL: DVVMTQSPLSLPVTLGQPASISCRSSLGLVHRNGNTYLHWFQQRPGQSPRLLIYKVSHRFSGVPDRFSGSGSGTDFTLKISRVEAEDVGVYYCSQSTHVPWTFGQGTKVEIKR", "values": [
      {"measurement": "IC50 (nM), chemotaxis assay, Assay-1", "setting": "human XCR1-EGFP [1]", "result": 0.1, "unit": "nM"},
      {"measurement": "IC50 (nM), chemotaxis assay, Assay-2", "setting": "human XCR1-EGFP [1]", "result": 0.25, "unit": "nM"},
      {"measurement": "IC50 (nM), chemotaxis assay, Assay-3", "setting": "human XCR1-EGFP [1]", "result": 0.12, "unit": "nM"}
    ]},
    {"binder": "humanized anti-human XCR1 antibody HK5L5 (antibody, human IgG2, kappa, V domains shown) VH: QVQLVQSGAEVKKPGASVKVSCKASGYTFTSHNLHWVRQAPGQGLEWMGAIYPGNGNTAYNQKFKGRVTMTRDTSTSTVYMELSSLRSEDTAVYYCARWGSVVGDWYFDVWGQGTLVTVSS VL: DIVMTQTPLSLPVTPGQPASISCRSSLGLVHRNGNTYLHWYLQKPGQSPQLLIYKVSHRFSGVPDRFSGSGSGTDFTLKISRVEAEDVGVYYCSQSTHVPWTFGQGTKVEIKR", "values": [
      {"measurement": "IC50 (nM), chemotaxis assay, Assay-1", "setting": "human XCR1-EGFP [1]", "result": 0.52, "unit": "nM"},
      {"measurement": "IC50 (nM), chemotaxis assay, Assay-2", "setting": "human XCR1-EGFP [1]", "result": 0.36, "unit": "nM"},
      {"measurement": "IC50 (nM), chemotaxis assay, Assay-3", "setting": "human XCR1-EGFP [1]", "result": 0.2, "unit": "nM"}
    ]},
    {"binder": "mouse anti-human XCR1 antibody (11H2) (antibody, IgG2a, V domains shown) VH: EVQLQQSGPVLVKPGASVKMSCKASGYTFTDYYVNWVKQSHGASLEWIGVSNPKNGDKSYNQKFKGKATLTVDKSSSTAYMELNSLTSEDSAVYYCARGLYYAGTYGYFDVWGTGTTVTVSS VL: DIQMTQATSSLSASLGDRVTISCRASQDISNYLNWYQQKPDGTVKLLIYYTSRLHSGVPSRFRGSGSGTDFSLTISNLEQEDIATYFCQQGKTLPRTLGGGTKLEIK", "values": [
      {"measurement": "binding result", "setting": "[2]", "result": "no binding (tested: 10 µg/mL)"},
      {"measurement": "binding result", "setting": "[3]", "result": "no binding (tested: 10 µg/mL)"},
      {"measurement": "binding result", "setting": "[4]", "result": "no binding (tested: 10 µg/mL)"},
      {"measurement": "binding result", "setting": "[5]", "result": "no binding (tested: 10 µg/mL)"},
      {"measurement": "IC50 of growth suppression with saporin-conjugated Fab anti-mouse IgG secondary antibody", "setting": "human XCR1-EGFP [6]", "result": 0.155, "unit": "nM"},
      {"measurement": "concentration of complete inhibition of cell migration, chemotaxis assay", "setting": "human XCR1-EGFP [6]", "result": "~3", "unit": "µg/mL"},
      {"measurement": "IC50", "setting": "human XCR1-EGFP [7]", "result": 23.8, "unit": "nM"},
      {"measurement": "IC50 (nM), chemotaxis assay", "setting": "human XCR1-EGFP [8]", "result": 0.99, "unit": "nM"},
      {"measurement": "IC90 (nM), chemotaxis assay", "setting": "human XCR1-EGFP [8]", "result": 6.32, "unit": "nM"}
    ]},
    {"binder": "mouse anti-human XCR1 antibody (2H6) (antibody, IgG2b, V domains shown) VH: QAYLQQSGAELVRPGASVKMSCKASGYTFSSHNMHWIKQTLRQGLEWIGAIYPGKGNTSYNQKFKGKATLTVDKSSSTAYMQLSSLTSEDSAVYFCARWGSVVGDWYFDVWGTGTTVTVSS VL: DVVVTQTPLSLPVSLGDQASISCRSSQSLVHSNGNTYLHWYLQKPGQSPKLLIYRVSNRFSGVPDRFSGSGLGRDFTLKISRVEAEDLGVYFCSQSTFVPWTFGGGTKLEIK", "values": [
      {"measurement": "IC50 of growth suppression with saporin-conjugated Fab anti-mouse IgG secondary antibody", "setting": "human XCR1-EGFP [6]", "result": 0.141, "unit": "nM"},
      {"measurement": "concentration of complete inhibition of cell migration, chemotaxis assay", "setting": "human XCR1-EGFP [6]", "result": "~3", "unit": "µg/mL"},
      {"measurement": "IC50", "setting": "human XCR1-EGFP [7]", "result": 37, "unit": "nM"},
      {"measurement": "IC50 (nM), chemotaxis assay", "setting": "human XCR1-EGFP [8]", "result": 1.28, "unit": "nM"},
      {"measurement": "IC90 (nM), chemotaxis assay", "setting": "human XCR1-EGFP [8]", "result": 7.6, "unit": "nM"}
    ]},
    {"binder": "mouse anti-human XCR1 antibody (5G7) (antibody, IgG2b, V domains shown, also called 5G7 Mab; parent antibody 5G7) VH: QAYLQQSGAELVRPGASVKMSCKASGYTFTSHNLHWVKQTPRQGLQWIGAIYPGNGNTAYNQKFKGKATLTVDKSSSTAYMQLSSLTSDDSAVYFCARWGSVVGDWYFDVWGTGTTVTVSS VL: DVVMTQTPLSLPVTLGNQASIFCRSSLGLVHRNGNTYLHWYLQKPGQSPKLLIYKVSHRFSGVPDRFSGSGSGTDFTLKISRVEAEDLGVYFCSQSTHVPWTFGGGTKLEIK", "values": [
      {"measurement": "IC50 of growth suppression with saporin-conjugated Fab anti-mouse IgG secondary antibody", "setting": "human XCR1-EGFP [6]", "result": 0.017, "unit": "nM"},
      {"measurement": "concentration of complete inhibition of cell migration, chemotaxis assay", "setting": "human XCR1-EGFP [6]", "result": "~3", "unit": "µg/mL"},
      {"measurement": "IC50", "setting": "human XCR1-EGFP [7]", "result": 6.9, "unit": "nM"},
      {"measurement": "IC50 (nM), chemotaxis assay", "setting": "human XCR1-EGFP [8]", "result": 0.63, "unit": "nM"},
      {"measurement": "IC90 (nM), chemotaxis assay", "setting": "human XCR1-EGFP [8]", "result": 2.52, "unit": "nM"}
    ]}
  ]
}
